In one assay the target is AMOT(1-300)-ALEXA488 (UniProt Q4VCS5). Description: fluorescence polarisation.
Assay [1] concerns the target AMOT PPxY3 (Homo sapiens) (UniProt Q4VCS5). The settings on record: cited from earlier work.
For assay [2], the target named is AMOT PPxY1 E104K/E105K mutant peptide (UniProt Q4VCS5). Briefly: fluorescence polarisation; 1 nM Oregon Green-labelled PPxY peptide, 2-fold dilutions of WW domain; 20 mM Tris pH 7.5, 150 mM NaCl, 0.5 mM TCEP; 26 °C (legend: 25 °C).
Assay [3] deals with AMOT PPxY1 peptide (residues 100-114), Oregon Green 488-labelled (UniProt Q4VCS5). The description is as above.
Assay [4] has as its target AMOT PPxY2 P239L mutant peptide (UniProt Q4VCS5). The description is as above.
Assay [5] deals with AMOT PPxY1 peptide (residues 100-114), Oregon Green 488-labelled (UniProt Q4VCS5). The assay is described as above. The source holds these as a separate data set.
Assay [6] deals with AMOT PPxY1 A112K mutant peptide (UniProt Q4VCS5). The description is as above.

Where two headings read alike, the source gives them in different places.

Chain of KIBRA WW1-WW2 (Q8IX03 6-86): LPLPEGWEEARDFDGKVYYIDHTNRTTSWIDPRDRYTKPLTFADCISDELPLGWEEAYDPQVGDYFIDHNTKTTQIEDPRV
Chain of AMOT(1-300)-ALEXA488 (Q4VCS5 1-300): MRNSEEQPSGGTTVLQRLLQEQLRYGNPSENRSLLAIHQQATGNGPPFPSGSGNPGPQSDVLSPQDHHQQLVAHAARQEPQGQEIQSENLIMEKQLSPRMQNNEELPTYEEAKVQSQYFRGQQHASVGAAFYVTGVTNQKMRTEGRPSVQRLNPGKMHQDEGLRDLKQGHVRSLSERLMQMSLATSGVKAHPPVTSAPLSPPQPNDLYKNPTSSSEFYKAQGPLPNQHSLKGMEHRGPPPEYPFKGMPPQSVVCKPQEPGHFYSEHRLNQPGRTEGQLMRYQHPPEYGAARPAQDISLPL

Consider “full-length recombinant NEDD4L (isoform 2) (enzyme)”, for which, in the assay with AMOT(1-300)-ALEXA488, the Kd came out at 2.7 µM.
Regarding KIBRA WW1-WW2 (from UniProt Q8IX03), the Kd in assay [1] was 0.096 µM.
For NEDD4L WW3 domain (domain or fragment), the Kd in assay [2] is 31 µM; in assay [3] it was 4.8 µM; in assay [5], 4.5 µM; in assay [6], 40 µM. In addition, the fold reduction of binding against wt PPxY2 in assay [4] worked out at 2.8 fold.
